Variants at the floor of the assay were thinned out.
Columns and labels:
biotinyl-Phe-oxazolone = experiment: self-aminoacylation, catalytic enhancement (BFO) (fold over background); higher = more active; k-Seq, kA / k0A0; sequences stand for … in GGGAAUGGAUCCACAUCUACGAAUUC…UUCACUGCAGACUUGACGAAGCUG
In short: (§1)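 Mutagenized RNA pools with a 21-nt variable region (0.43 μM) reacted with each biotinyl-aminoacyl-oxazolone at 2–1250 μM. Reactions ran in 50 μL HEPES/NaCl/KCl/MgCl2/CaCl2 buffer with 5% acetonitrile, pH 6.9–7.0, for 90 minutes at room temperature. Streptavidin-captured RNA was quantified by triplicate qPCR and Illumina sequencing, and per-sequence fraction reacted was fit to a pseudo-first-order model with 1000 bootstraps. Catalytic enhancement is median kA divided by the uncatalyzed rate, the low-activity peak of a bimodal Gaussian fit.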

biotinyl-Ile-oxazolone = experiment: self-aminoacylation, catalytic enhancement (BIO) (fold over background); higher = more active; k-Seq, kA / k0A0; sequences stand for … in GGGAAUGGAUCCACAUCUACGAAUUC…UUCACUGCAGACUUGACGAAGCUG
In short: as §1

biotinyl-Met-oxazolone = experiment: self-aminoacylation, catalytic enhancement (BMO) (fold over background); higher = more active; k-Seq, kA / k0A0; sequences stand for … in GGGAAUGGAUCCACAUCUACGAAUUC…UUCACUGCAGACUUGACGAAGCUG
In short: as §1

biotinyl-Val-oxazolone = experiment: self-aminoacylation, catalytic enhancement (BVO) (fold over background); higher = more active; k-Seq, kA / k0A0; sequences stand for … in GGGAAUGGAUCCACAUCUACGAAUUC…UUCACUGCAGACUUGACGAAGCUG
In short: as §1

biotinyl-Leu-oxazolone = experiment: self-aminoacylation, catalytic enhancement (BLO) (fold over background); higher = more active; k-Seq, kA / k0A0; sequences stand for … in GGGAAUGGAUCCACAUCUACGAAUUC…UUCACUGCAGACUUGACGAAGCUG
In short: as §1

biotinyl-Trp-oxazolone = experiment: self-aminoacylation, catalytic enhancement (BWO) (fold over background); higher = more active; k-Seq, kA / k0A0; sequences stand for … in GGGAAUGGAUCCACAUCUACGAAUUC…UUCACUGCAGACUUGACGAAGCUG
In short: as §1

| Sequence | self-aminoacylation (biotinyl-Phe-oxazolone) | self-aminoacylation (biotinyl-Ile-oxazolone) | self-aminoacylation (biotinyl-Met-oxazolone) | self-aminoacylation (biotinyl-Val-oxazolone) | self-aminoacylation (biotinyl-Leu-oxazolone) | self-aminoacylation (biotinyl-Trp-oxazolone) |
| --- | --- | --- | --- | --- | --- | --- |
| AUUACCCGGCUCAUCGAGUGA [Fam2.1 aminoacylation ribozyme variant] | 0.746 | 1.79 | 1.72 | 1.72 | 1.71 | 1.61 |
| AUUACCCGGGUCAACGAGUGA [Fam2.1 aminoacylation ribozyme variant] | 63.5 | 5.11 | 9.41 | 4.94 | 9.62 | 9.96 |
| AUUACCCGGGUCAUAGAGUGA [Fam2.1 aminoacylation ribozyme variant] | 71.4 | 4.55 | 9.33 | 4.45 | 9.4 | 10.4 |
| AUUACCCGGGUCAUCAAGUGA [Fam2.1 aminoacylation ribozyme variant] | 5.43 | 1.77 | 2.59 | 2.08 | 2.35 | 2.93 |
| AUUACCCGGGUCAUCGACUGA [Fam2.1 aminoacylation ribozyme variant] | 0.62 | 0.845 | 0.768 | 0.837 | 0.675 | 0.755 |
| AUUACCCGGGUCAUCGAGGGA [Fam2.1 aminoacylation ribozyme variant] | 3.47 | 1.46 | 1.32 | 1.32 | 1.61 | 0.834 |
| AUUACCCGGGUCAUCGAGUGC [Fam2.1 aminoacylation ribozyme variant] | 5.14 | 1.46 | 1.21 | 1.39 | 1.72 | 1.13 |
| AUUACCCGGGUCAUCGAGUGU [Fam2.1 aminoacylation ribozyme variant] | 10.8 | 2.33 | 3.48 | 2.11 | 3.19 | 3.42 |
| AUUACCCGGGUCAUCGCGUGA [Fam2.1 aminoacylation ribozyme variant] | 178 | 12 | 25.4 | 15.6 | 28.3 | 27.8 |
| AUUACCCGGGUGAUCGAGUGA [Fam2.1 aminoacylation ribozyme variant] | 46.1 | 3.2 | 7.21 | 4.2 | 7.76 | 8.54 |
| AUUACCCUAAUCAUCGAGUGA [Fam2.1 aminoacylation ribozyme variant] | 19.8 | 3.28 | 6.83 | 3.39 | 6.87 | 7.8 |
| AUUACCCUAGUCGUCGAGUGA [Fam2.1 aminoacylation ribozyme variant] | 1.04 | 0.866 | 0.893 | 0.97 | 0.845 | 0.759 |
| AUUACCCUAGUGAUCGAGUGA [Fam2.1 aminoacylation ribozyme variant] | 7.82 | 1.76 | 3.31 | 1.86 | 2.72 | 3.1 |
| AUUACCCUCGGCAUCGAGUGA [Fam2.1 aminoacylation ribozyme variant] | 59.4 | 4.6 | 10.2 | 4.45 | 11.1 | 13.9 |
| AUUACCCUCGUCAUAGAGUGA [Fam2.1 aminoacylation ribozyme variant] | 11.5 | 2.43 | 4.53 | 2.72 | 4.19 | 4.65 |
| AUUACCCUCGUCAUCAAGUGA [Fam2.1 aminoacylation ribozyme variant] | 6.71 | 1.92 | 2.96 | 2.19 | 2.87 | 4.2 |
| AUUACCCUCGUCAUCCAGUGA [Fam2.1 aminoacylation ribozyme variant] | 1.18 | 1.44 | 1.51 | 1.29 | 1.94 | 1.02 |
| AUUACCCUCGUCAUCGAGUGC [Fam2.1 aminoacylation ribozyme variant] | 1.29 | 0.96 | 0.914 | 0.864 | 1.17 | 0.477 |
| AUUACCCUCGUCAUCGAGUUA [Fam2.1 aminoacylation ribozyme variant] | 0.569 | 0.965 | 0.915 | 0.943 | 0.983 | 0.486 |
| AUUACCCUCGUCAUUGAGUGA [Fam2.1 aminoacylation ribozyme variant] | 11.2 | 2.22 | 4.09 | 2.55 | 3.99 | 5.16 |
| AUUACCCUCUUCAUCGAGUGA [Fam2.1 aminoacylation ribozyme variant] | 1.52 | 1.02 | 1.33 | 1.11 | 1.41 | 0.851 |
| AUUACCCUGAUCAUCAAGUGA [Fam2.1 aminoacylation ribozyme variant] | 3.86 | 1.57 | 2.3 | 1.77 | 2.77 | 3.1 |
| AUUACCCUGAUCAUCGACUGA [Fam2.1 aminoacylation ribozyme variant] | 1.16 | 0.928 | 0.78 | 0.876 | 0.777 | 0.666 |
| AUUACCCUGAUCAUCGAGUCA [Fam2.1 aminoacylation ribozyme variant] | 0.555 | 0.738 | 0.577 | 0.786 | 0.722 | 0.305 |
| AUUACCCUGAUCAUCGUGUGA [Fam2.1 aminoacylation ribozyme variant] | 27.5 | 2.37 | 5.72 | 2.67 | 5.65 | 5.88 |
| AUUACCCUGCUCAUCGAGGGA [Fam2.1 aminoacylation ribozyme variant] | 0.691 | 1.02 | 0.947 | 0.905 | 0.858 | 0.707 |

| Sequence | self-aminoacylation (biotinyl-Phe-oxazolone) | self-aminoacylation (biotinyl-Ile-oxazolone) | self-aminoacylation (biotinyl-Met-oxazolone) | self-aminoacylation (biotinyl-Val-oxazolone) | self-aminoacylation (biotinyl-Leu-oxazolone) | self-aminoacylation (biotinyl-Trp-oxazolone) |
| --- | --- | --- | --- | --- | --- | --- |
| AUUACCCUGCUCAUCGAGUGA [Fam2.1 aminoacylation ribozyme variant] | 2.7 | 1.34 | 1.99 | 1.52 | 1.87 | 2.33 |
| AUUACCCUGCUCAUCGGGUGA [Fam2.1 aminoacylation ribozyme variant] | 33.5 | 2.63 | 4.81 | 3.34 | 5.17 | 6 |
| AUUACCCUGCUCAUGGAGUGA [Fam2.1 aminoacylation ribozyme variant] | 63.7 | 4.53 | 9.54 | 4.47 | 10.1 | 12.3 |
| AUUACCCUGGACAACGAGUGA [Fam2.1 aminoacylation ribozyme variant] | 59.1 | 3.88 | 8.65 | 3.76 | 8.43 | 9.2 |
| AUUACCCUGGACAGCGAGUGA [Fam2.1 aminoacylation ribozyme variant] | 10.9 | 2.24 | 3.3 | 2.12 | 4.19 | 2.52 |
| AUUACCCUGGACAUCGAAUGA [Fam2.1 aminoacylation ribozyme variant] | 0.708 | 1.23 | 0.846 | 0.895 | 0.96 | 0.378 |
| AUUACCCUGGACAUCGAGUGA [Fam2.1 aminoacylation ribozyme variant] | 19.6 | 2.52 | 5.32 | 2.79 | 5.18 | 5.97 |
| AUUACCCUGGACAUCGCGUGA [Fam2.1 aminoacylation ribozyme variant] | 80 | 4.42 | 9.04 | 5.5 | 9.65 | 9.83 |
| AUUACCCUGGACAUCGGGUGA [Fam2.1 aminoacylation ribozyme variant] | 29.7 | 7.02 | 9.33 | 7.46 | 10.2 | 7.69 |
| AUUACCCUGGACCUCGAGUGA [Fam2.1 aminoacylation ribozyme variant] | 5.71 | 1.88 | 3.68 | 2.4 | 3.9 | 3.16 |
| AUUACCCUGGAGAUCGAGUGA [Fam2.1 aminoacylation ribozyme variant] | 28.9 | 3.59 | 6.7 | 3.79 | 7.42 | 8.06 |
| AUUACCCUGGAUAUCGAGUGA [Fam2.1 aminoacylation ribozyme variant] | 67.3 | 4.43 | 10.5 | 4.88 | 11.1 | 12.9 |
| AUUACCCUGGCCAUCGAGGGA [Fam2.1 aminoacylation ribozyme variant] | 0.483 | 1.9 | 1.01 | 2.96 | 1.47 | 1.31 |
| AUUACCCUGGCCAUUGAGUGA [Fam2.1 aminoacylation ribozyme variant] | 4.63 | 2.13 | 3.72 | 2.41 | 4.53 | 4.73 |
| AUUACCCUGGGCAGCGAGUGA [Fam2.1 aminoacylation ribozyme variant] | 34.6 | 5.87 | 9.21 | 5.64 | 8.78 | 9.57 |
| AUUACCCUGGGCAUAGAGUGA [Fam2.1 aminoacylation ribozyme variant] | 71.5 | 4.98 | 10.1 | 4.72 | 12.6 | 12.6 |
| AUUACCCUGGGCAUCGAGAGA [Fam2.1 aminoacylation ribozyme variant] | 0.489 | 0.802 | 0.914 | 0.74 | 0.749 | 0.642 |
| AUUACCCUGGGCAUCGAGCGA [Fam2.1 aminoacylation ribozyme variant] | 7.68 | 1.26 | 1.08 | 1.48 | 0.813 | 1.43 |
| AUUACCCUGGGCAUCGAGUGC [Fam2.1 aminoacylation ribozyme variant] | 0.527 | 1.1 | 1.24 | 0.979 | 0.992 | 1.31 |
| AUUACCCUGGUAAUCGAGUGC [Fam2.1 aminoacylation ribozyme variant] | 1.38 | 0.957 | 1.12 | 0.801 | 1.04 | 0.656 |
| AUUACCCUGGUAAUCGCGUGA [Fam2.1 aminoacylation ribozyme variant] | 58.9 | 3.14 | 7.29 | 3.66 | 8.44 | 7.81 |
| AUUACCCUGGUCAAUGAGUGA [Fam2.1 aminoacylation ribozyme variant] | 30.9 | 3.46 | 7.16 | 3.7 | 6.7 | 8.83 |
| AUUACCCUGGUCACCGAGCGA [Fam2.1 aminoacylation ribozyme variant] | 0.94 | 1.16 | 2.08 | 1.25 | 1.54 | 0.843 |
| AUUACCCUGGUCACCGAGGGA [Fam2.1 aminoacylation ribozyme variant] | 0.887 | 1.67 | 2.27 | 2.39 | 1.83 | 3.76 |
| AUUACCCUGGUCAGCGAGGGA [Fam2.1 aminoacylation ribozyme variant] | 0.743 | 1.54 | 1.34 | 1.19 | 0.891 | 2.06 |
